Here are results for 1 protein from paper doi:10.1101/2025.08.04.668567 (bioRxiv, 2025).

This data set deals with the molecule itself. The experiment in a line: cryo-EM structure.

B1: Rice OsPHT1;11 (OsPT11) (natural protein)
chain: MADADGGSNLAVLDALDSARTQMYHMKAIVIAGMGFFTDAYDLFCISTVSKLLGRLYYQPDGSTDSKPGALSKTANNMVIGVALVGTLMGQLVFGYFGDKLGRKRVYGVTLILMAACAIGSGLSFGSSRKAVIGTLCFFRFWLGFGIGGDYPLSATIMSEYSNKKTRGAFIAAVFAMQGVGIIFAGLVSMIVSSIFLTYNKAPSYKGNHDLSRQMPAADYVWRIVLMIGAFPALATFYWRMKMPETARYTAIIDGNAKQAANDMQKVLSIEIEAEQEKLAKFNAANNYPLLSMEFARRHGLHLIGTTTTWFLLDIAFYSQNLTQKDIFPAMGLISGAAEVNALTEMFQISKASFLVALLGTFPGYWVTVALIDKMGRYMIQLIGFFMMSMFMLAMGILYDYLKTHHFLFGLLYALTFFFANFGPNSTTFVLPAELFPTRVRSTCHAISAAAGKAGAIVAAFGIQKLTYNSQVKSIKKALIILSITNMLGFFFTFLVPETMGRSLEEISGEDGNTGAGGGGAPAAANAGVGVSASDVSRDEKFPASSTEWQTSMHA
For B1, the stoichiometry N (commonly a count of units in the complex or per binding partner) was 2.
